Experimental data reported in US20240398963A1 (priority 2021, published 2024).

Type: physicochemical
Settings: 10 mM PBS buffer (pH=7.4), 37° C., 100 rpm shaker; free drug by HPLC, average release per day
Method: The drug release and stability experiments were run using the test compounds. About 2.5±1.0 mg/mL (with regard to conjugate) solution of each test compound was prepared with 10 mM PBS buffer (pH=7.4) in Millipore Amicon® Ultra-0.5 ml 30 k Ultrafiltration centrifuge tube. The solution was kept swelling for 1 h at room temperature and then placed in a shaker at 100 rpm, 37° C. for continuous experiment. At the same time point of each day, samples were centrifuged at 10000 rpm for 1 h. The aliquot was transferred to HPLC vial for analysis. An 0.4 mL of 10 mM PBS buffer was added into the centrifuge tube and continue the experiment.
For the HPLC analysis at each time point, the peak areas of all relevant peaks from the chromatograms were retrieved and the concentration of free drug was calculated. Average release of free drug was calculated based on the sum of free drug and numbers of experiment days. The computing equation is as below.
The sample degradation rate was calculated based on the concentration and degree of substitution (NMR) for conjugated drug with regard to the initial starting point of the experiment (at t=0). The computing equation is as below.

Substance	Release rate [%/day]
Conjugate of HA and 2-((6αS,6βR,7S,8αS,8βS,11αR,12αS,12βS)-6β-fluoro-7-hydroxy-6α,8α,10,10-tetramethyl-4-oxo-1,2,4,6α,6β,7,8,8α,11α,12,12α,12β-dodecahydro-8βH-naphtho[2′,1′:4,5]indeno[1,2-d][1,3]dioxol-8β-yl)-2-oxoethyl glycylglycylglycinate [Example 19]	17.57
Conjugate of HA and 2-((8S,9R,10S,11S,13S,14S,16R,17R)-9-fluoro-11,17-dihydroxy-10,13,16-trimethyl-3-oxo-6,7,8,9,10,11,12,13,14,15,16,17-dodecahydro-3H-cyclopenta[a]phenanthren-17-yl)-2-oxoethyl 4-aminobutanoate [Example 44]	1.12
Conjugate of HA and 2-((8S,9R,10S,11S,13S,14S,16R,17R)-9-fluoro-11,17-dihydroxy-10,13,16-trimethyl-3-oxo-6,7,8,9,10,11,12,13,14,15,16,17-dodecahydro-3H-cyclopenta[a]phenanthren-17-yl)-2-oxoethyl 5-aminopentanoate [Example 79]	4.42
Conjugate of HA and 2-((8S,9R,10S,11S,13S,14S,16R,17R)-9-fluoro-11,17-dihydroxy-10,13,16-trimethyl-3-oxo-6,7,8,9,10,11,12,13,14,15,16,17-dodecahydro-3H-cyclopenta[a]phenanthren-17-yl)-2-oxoethyl 6-aminohexanoate [Example 83]	2.15
Conjugate of HA and 2-((8S,9R,10S,11S,13S,14S,16S,17R)-9-fluoro-11,17-dihydroxy-10,13,16-trimethyl-3-oxo-6,7,8,9,10,11,12,13,14,15,16,17-dodecahydro-3H-cyclopenta[a]phenanthren-17-yl)-2-oxoethyl 4-aminobutanoate [Example 46]	2.95
Conjugate of HA and 2-((8S,9R,10S,11S,13S,14S,16S,17R)-9-fluoro-11,17-dihydroxy-10,13,16-trimethyl-3-oxo-6,7,8,9,10,11,12,13,14,15,16,17-dodecahydro-3H-cyclopenta[a]phenanthren-17-yl)-2-oxoethyl 6-aminohexanoate [Example 84]	3.73
Conjugate of HA and 2-((8S,9S,10R,11S,13S,14S,17R)-11,17-dihydroxy-10,13-dimethyl-3-oxo-2,3,6,7,8,9,10,11,12,13,14,15,16,17-tetradecahydro-1H-cyclopenta[a]phenanthren-17-yl)-2-oxoethyl 4-aminobutanoate [Example 38]	1.71
Conjugate of HA and 2-((8S,9S,10R,11S,13S,14S,17R)-11,17-dihydroxy-10,13-dimethyl-3-oxo-2,3,6,7,8,9,10,11,12,13,14,15,16,17-tetradecahydro-1H-cyclopenta[a]phenanthren-17-yl)-2-oxoethyl 5-aminopentanoate [Example 76]	2.66
Conjugate of HA and 2-((8S,9S,10R,11S,13S,14S,17R)-11,17-dihydroxy-10,13-dimethyl-3-oxo-2,3,6,7,8,9,10,11,12,13,14,15,16,17-tetradecahydro-1H-cyclopenta[a]phenanthren-17-yl)-2-oxoethyl 6-aminohexanoate [Example 93]	7.67
Conjugate of HA and 2-((8S,9S,10R,11S,13S,14S,17R)-11,17-dihydroxy-10,13-dimethyl-3-oxo-6,7,8,9,10,11,12,13,14,15,16,17-dodecahydro-3H-cyclopenta[a]phenanthren-17-yl)-2-oxoethyl 4-aminobutanoate [Example 36]	2.89
Conjugate of HA and 2-((8S,9S,10R,11S,13S,14S,17R)-11,17-dihydroxy-10,13-dimethyl-3-oxo-6,7,8,9,10,11,12,13,14,15,16,17-dodecahydro-3H-cyclopenta[a]phenanthren-17-yl)-2-oxoethyl 6-aminohexanoate [Example 81]	1.71
Conjugate of HA and 2-((8S,9S,10R,11S,13S,14S,17R)-11,17-dihydroxy-10,13-dimethyl-3-oxo-6,7,8,9,10,11,12,13,14,15,16,17-dodecahydro-3H-cyclopenta[a]phenanthren-17-yl)-2-oxoethyl-5-aminopentanoate [Example 75]	4.80
Conjugate of HA and 2-((8S,9S,10R,13S,14S,17R)-17-hydroxy-10,13-dimethyl-3,11-dioxo-2,3,6,7,8,9,10,11,12,13,14,15,16,17-tetradecahydro-1H-cyclopenta[a]phenanthren-17-yl)-2-oxoethyl 4-aminobutanoate [Example 40]	2.49
Conjugate of HA and 2-((8S,9S,10R,13S,14S,17R)-17-hydroxy-10,13-dimethyl-3,11-dioxo-2,3,6,7,8,9,10,11,12,13,14,15,16,17-tetradecahydro-1H-cyclopenta[a]phenanthren-17-yl)-2-oxoethyl 5-aminopentanoate [Example 77]	4.81
Conjugate of HA and 2-((8S,9S,10R,13S,14S,17R)-17-hydroxy-10,13-dimethyl-3,11-dioxo-2,3,6,7,8,9,10,11,12,13,14,15,16,17-tetradecahydro-1H-cyclopenta[a]phenanthren-17-yl)-2-oxoethyl 6-aminohexanoate [Example 94]	2.85
Conjugate of HA and 2-((8S,9S,10R,13S,14S,17R)-17-hydroxy-10,13-dimethyl-3,11-dioxo-6,7,8,9,10,11,12,13,14,15,16,17-dodecahydro-3H-cyclopenta[a]phenanthren-17-yl)-2-oxoethyl 5-aminopentanoate [Example 74]	4.06
Conjugate of HA and 2-((8S,9S,10R,13S,14S,17R)-17-hydroxy-10,13-dimethyl-3,11-dioxo-6,7,8,9,10,11,12,13,14,15,16,17-dodecahydro-3H-cyclopenta[a]phenanthren-17-yl)-2-oxoethyl 6-aminohexanoate [Example 92]	8.21
Conjugate of HA and 4-aminobutyl (2-((6S,8S,9S,10R,11S,13S,14S,17R)-11,17-dihydroxy-6,10,13-trimethyl-3-oxo-6,7,8,9,10,11,12,13,14,15,16,17-dodecahydro-3H-cyclopenta[a]phenanthren-17-yl)-2-oxoethyl) carbonate [Example 68]	8.02
Conjugate of HA and 4-aminobutyl (2-((8S,9R,10S,11S,13S,14S,16R,17R)-9-fluoro-11,17-dihydroxy-10,13,16-trimethyl-3-oxo-6,7,8,9,10,11,12,13,14,15,16,17-dodecahydro-3H-cyclopenta[a]phenanthren-17-yl)-2-oxoethyl) carbonate [Example 70]	3.49
Conjugate of HA and 4-aminobutyl (2-((8S,9R,10S,11S,13S,14S,16S,17R)-9-fluoro-11,17-dihydroxy-10,13,16-trimethyl-3-oxo-6,7,8,9,10,11,12,13,14,15,16,17-dodecahydro-3H-cyclopenta[a]phenanthren-17-yl)-2-oxoethyl) carbonate [Example 72]	7.86
Conjugate of HA and 4-aminobutyl (2-((8S,9S,10R,11S,13S,14S,17R)-11,17-dihydroxy-10,13-dimethyl-3-oxo-2,3,6,7,8,9,10,11,12,13,14,15,16,17-tetradecahydro-1H-cyclopenta[a]phenanthren-17-yl)-2-oxoethyl) carbonate [Example 64]	7.61
Conjugate of HA and 4-aminobutyl (2-((8S,9S,10R,11S,13S,14S,17R)-11,17-dihydroxy-10,13-dimethyl-3-oxo-6,7,8,9,10,11,12,13,14,15,16,17-dodecahydro-3H-cyclopenta[a]phenanthren-17-yl)-2-oxoethyl) carbonate [Example 62]	0.14
Conjugate of HA and 4-aminobutyl (2-((8S,9S,10R,13S,14S,17R)-17-hydroxy-10,13-dimethyl-3,11-dioxo-2,3,6,7,8,9,10,11,12,13,14,15,16,17-tetradecahydro-1H-cyclopenta[a]phenanthren-17-yl)-2-oxoethyl) carbonate [Example 66]	11.18
Conjugate of HA and 4-aminobutyl (2-((8S,9S,10R,13S,14S,17R)-17-hydroxy-10,13-dimethyl-3,11-dioxo-6,7,8,9,10,11,12,13,14,15,16,17-dodecahydro-3H-cyclopenta[a]phenanthren-17-yl)-2-oxoethyl) carbonate [Example 60]	15.04
Conjugate of HA and 5-aminopentyl (2-((6S,8S,9S,10R,11S,13S,14S,17R)-11,17-dihydroxy-6,10,13-trimethyl-3-oxo-6,7,8,9,10,11,12,13,14,15,16,17-dodecahydro-3H-cyclopenta[a]phenanthren-17-yl)-2-oxoethyl) carbonate [Example 86]	6.93
Conjugate of HA and 5-aminopentyl (2-((8S,9R,10S,11S,13S,14S,16R,17R)-9-fluoro-11,17-dihydroxy-10,13,16-trimethyl-3-oxo-6,7,8,9,10,11,12,13,14,15,16,17-dodecahydro-3H-cyclopenta[a]phenanthren-17-yl)-2-oxoethyl) carbonate [Example 87]	6.96
